From article PMC5131957

Molecular target: p53CD (core domain) (human) (UniProt P04637)
Test: ELISA
Conditions: EMSA: 5 mM Tris-HCl pH 8, 1 mM MgCl2, 0.01% Triton X-100, 50 mM KCl, on ice or 25 C, 30 min, pBSK/SmaI competitor 5-50 ng; ELISA: 1x PBS, 2 mM MgCl2 …

Chain of p53CD (core domain) (human) (P04637 94-312): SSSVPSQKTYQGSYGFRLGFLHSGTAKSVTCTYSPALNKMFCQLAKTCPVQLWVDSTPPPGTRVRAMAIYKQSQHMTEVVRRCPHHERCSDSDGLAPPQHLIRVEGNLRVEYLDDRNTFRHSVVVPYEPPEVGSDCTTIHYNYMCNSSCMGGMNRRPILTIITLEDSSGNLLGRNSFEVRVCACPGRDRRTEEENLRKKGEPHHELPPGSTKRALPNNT

TTTTTTTTTTTTTTTTTTTTTTTTTTTTTTTTTTTTTTTTTTTTTTTTTT / AAAAAAAAAAAAAAAAAAAAAAAAAAAAAAAAAAAAAAAAAAAAAAAAAA / TTTTTTTTTTTTTTTTTTTTTTTTTTTTTTTTTTTTTTTTTTTTTTTTTT [T.A.T triplex, biotinylated]
Kd: 0.0168 µM
